This note sets out measurements from article PMC3582769 (Molecular cell, 2013).

This test concerns the target ELOBC heterodimer (UniProt Q15370;Q15369). As to the kind of experiment: SEC-MALS.

ELOBC heterodimer, sequence (Q15370 whole entry, chain 1 of 2): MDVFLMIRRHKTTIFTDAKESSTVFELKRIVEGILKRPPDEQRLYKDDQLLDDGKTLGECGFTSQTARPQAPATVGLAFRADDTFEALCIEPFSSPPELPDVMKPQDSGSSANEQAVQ
ELOBC heterodimer, sequence (Q15369 whole entry, chain 2 of 2): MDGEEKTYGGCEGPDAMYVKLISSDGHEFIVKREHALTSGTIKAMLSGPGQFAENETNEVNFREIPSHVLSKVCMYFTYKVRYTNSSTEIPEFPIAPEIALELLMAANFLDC

B1: Strep-Vif (HIV-1 Vif, wild type) (natural protein)
chain: not shown
In the case of B1, the binding result is recorded as “binds”.
